Assay [1] concerns the target T1, full length human CD40 (uniprot # P25942-1) on the membrane of 293T-CD40 cells (human, UniProt P25942 21-277). Kind of assay: cell-based or functional assay.
Assay [2] has as its target T1, full length human CD40 (uniprot # …). Briefly: flow cytometry on 293T-CD40 cells. On the procedure: 2×10⁵ cells per well in 96 well-plates were incubated with the mouse anti-CD40 antibodies or the controls of various concentrations in FACS buffer for 40 minutes on ice. […] Following an incubation of 40 minutes at 4° C. in dark, cells were washed three times and resuspended in FACS buffer. Fluorescence was measured using a Becton Dickinson FACS Canto II-HTS equipment and plotted against antibody concentration.
(In flow cytometry, cells or beads pass a laser one at a time.)

Assay [3] addresses T2, human CD40-Fc protein (amino acid residue 21-193 of SEQ ID NO: 67 linked to N-terminus of amino acid residue … (human, biotin-labeled in the capture ELISA and in the benchmark blocking ELISA; unlabeled when coated in the ligand blocking ELISA).
T2 construct: also called biotin-labeled human CD40-Fc; human CD40-Fc-biotin
Briefly: capture ELISA, biotin human CD40-Fc; mAb at 16 ng/mL. On the procedure:
(§1) Plates were washed 4 times with wash buffer (PBS+0.05% Tween-20, PBST) and then blocked with 200 μl/well blocking buffer (5% w/v non-fatty milk in PBST) for 2 hours at 37° C. […] After a final wash, plates were incubated with 100 μl/well ELISA substrate TMB (Innoreagents, Cat # TMB-S-002). The reaction was stopped in 15 minutes at 25° C. with 50 μl/well 1M H₂SO₄, and the absorbance was read at 450 nm and plotted against antibody concentration. Data were analyzed using Graphpad Prism software and EC₅₀ values were reported.

Assay [4] addresses T2, human CD40-Fc protein (amino acid …). Briefly: capture ELISA, biotin human CD40-Fc; mAb at 3.2 ng/mL. On the procedure:
as §1
A general note: An ELISA detects its analyte on a solid surface through an enzyme-linked reagent.

Assay [5] shares this target. Briefly: capture ELISA, biotin human CD40-Fc; mAb at 0.64 ng/mL. On the procedure: as §1
Assay [6] has the same target. Briefly: capture ELISA, biotin human CD40-Fc; mAb at 10000 ng/mL. On the procedure: as §1
Assay [7] has the same target. Briefly: competitive ELISA; coated human CD40-Fc, competitor biotin human CD40L-his. On the procedure: Briefly, human CD40-Fc proteins (amino acid residue 21-193 of SEQ ID NO: 67 linked to N-terminus of amino acid residue 99-330 of SEQ ID NO.: 24) were coated on 96-well micro plates at 2 μg/mL in coating buffer (PBS) and incubated overnight at 4° C. The next day, plates were washed with wash buffer (PBS+0.05% Tween-20, PBST), and blocked with 5% w/v non-fatty milk in PBST for 2 hours at 37° C. Plates were then washed again using wash buffer.
(§2) Serially diluted the mouse anti-CD40 antibodies of the present invention or the controls (starting at 200 nM with a four-fold serial dilution) in 2.5% w/v non-fatty milk in PBST were prepared to the plates and incubated with the human CD40-Fc proteins at room temperature for 40 minutes. […] Plates were washed again. 100 μl/well of streptavidin conjugated HRP was added and incubated for 40 minutes at 37° C. Plates were washed again using wash buffer. Finally, TMB was added and the reaction was stopped using 1M H₂SO₄, and the absorbance was read at 450 nm. Data were analyzed using Graphpad Prism software and IC₅₀ values were reported.
In the capture ELISA test, a mouse control antibody targeting a protein other than CD40 was used.

For assay [8] the target is unchanged. Kind of assay: capture ELISA; antibody captured, biotin-labeled human CD40-Fc in solution. On the procedure: as §1
Assay [9] has the same target. Briefly: competitive ELISA; biotin human CD40-Fc in solution, competitor coated BM2. On the procedure: The ability of the mouse anti-CD40 antibodies of the present invention to block the binding of the Benchmark to human CD40 was measured using a competitive ELISA assay. […] The next day, plates were washed with wash buffer, and blocked with 5% w/v non-fatty milk in PBST for 2 hours at 37° C. Plates were then washed again using wash buffer. […] After incubation at 37° C. for 40 minutes, plates were washed 4 times using wash buffer. Then streptavidin conjugated HRP was added and incubated for 40 minutes at 37° C. to detect biotin-labeled human CD40-Fc bound to plates. Plates were washed again using wash buffer. Finally, TMB was added and the reaction was stopped using 1M H₂SO₄, and the absorbance was read at 450 nm. Data were analyzed using Graphpad Prism software and IC₅₀ values were reported.

For assay [10] the target is unchanged. Briefly: competitive ELISA; coated human CD40-Fc, competitor biotin human CD40L-his. On the procedure:
as §2
The source holds these as a separate data set.

For assay [11] the target is unchanged. Briefly: ligand blocking ELISA: human CD40-Fc coated, antibody titrated, then biotin-labeled human CD40L-his (blocked ligand), streptavidin-HRP, OD(450-630). On the procedure:
as §2

B1: mouse anti-CD40 monoclonal antibody C1C1 (antibody, V domains shown)
VH: EVKLVESGGGLVKPGASLKLSCAASGFTFSNYGMSWVRQNSDKRLEWVASISSGGDDTYYPDNVKGRCTISRENAKNTLYLEMSSLKTEDTALYYCTRAGGKAMDYWGQGTSVTVST
VL: DIVLTQSPATLSVIPGNSVSLSCRASQSIRDNLHWYQQKSHESPRLLINYASQSISGIPSRFSGSGSGTDFTLTINSVETEDFGIYFCQQFNSWPLTFGGGTKLELK
notes: those are used here for the chimeric antibody only; also called Mouse C1C1; mouse C1C1
Turning to B1, in assay [1], the “cell based functional assay (EC50, nM)” value came to 2.51 nM. For the same molecule, the EC50 – broadly, the concentration that produces a half-maximal response – in assay [2] worked out at 1.86 nM; in assay [8] it was 0.000155 µg/mL. The “absorbance at 450 nm” value in assay [3] is 0.764 OD450; in assay [4], 0.288 OD450; in assay [5], 0.142 OD450; in assay [6], 1.81 OD450. Besides, the figures for the IC50 in [7], in assay [9] and in assay [10] were 5.4 nM, 0.461 nM and 5.4 nM, respectively. Also, in assay [11], the “IC50 (read off the curve)” value is roughly 0.8 µg/mL.

B2: chimeric antibody C1C1 (antibody, human IgG1, kappa, V domains shown)
VH: EVKLVESGGGLVKPGASLKLSCAASGFTFSNYGMSWVRQNSDKRLEWVASISSGGDDTYYPDNVKGRCTISRENAKNTLYLEMSSLKTEDTALYYCTRAGGKAMDYWGQGTSVTVST
VL: DIVLTQSPATLSVIPGNSVSLSCRASQSIRDNLHWYQQKSHESPRLLINYASQSISGIPSRFSGSGSGTDFTLTINSVETEDFGIYFCQQFNSWPLTFGGGTKLELKR
notes: also called chC1C1; chimeric C1C1
Take B2: in assay [1], the “cell based functional assay (EC50, nM)” value amounted to 3.28 nM. Also, the EC50 in assay [2] turned out to be 1.82 nM; in assay [8] it was 0.000384 µg/mL. Also, the “absorbance at 450 nm” value in assay [3] was 0.329 OD450; in assay [4] it was 0.082 OD450; in assay [5] it was 0.035 OD450; in assay [6], 1.96 OD450. The results for the IC50 in assay [7], in assay [9] and in assay [10] were 4.83 nM, 0.126 nM and 4.83 nM, respectively. In addition, the “IC50 (read off the curve)” value in assay [11] is roughly 0.8 µg/mL.
